In patent publication US20200332371A1 (UNIVERSITY OF CHICAGO, published 2020):

How the values were obtained:
[1] = molecular target: SspB-C-term (bacteriophage T7) (UniProt P0AFZ3); assay: cell-based or functional assay
[2] = molecular target: FKBP-C-term (bacteriophage T7) (UniProt P62942); assay: cell-based or functional assay
C-term RNAP (WT) = molecular target: T1, C-term RNAP (WT) (bacteriophage T7, UniProt P00573 180-883); assay: E. coli luciferase transcription reporter (split T7 RNAP complementation)
T1 construct: C-terminal half of T7 RNAP split at position 179, without a fusion partner; expressed in E. coli; A start codon for the unfused half is not described; also called C-terminal split RNAP; C-terminal T7 RNAP
T1 sequence (P00573 180-883 limits assumed): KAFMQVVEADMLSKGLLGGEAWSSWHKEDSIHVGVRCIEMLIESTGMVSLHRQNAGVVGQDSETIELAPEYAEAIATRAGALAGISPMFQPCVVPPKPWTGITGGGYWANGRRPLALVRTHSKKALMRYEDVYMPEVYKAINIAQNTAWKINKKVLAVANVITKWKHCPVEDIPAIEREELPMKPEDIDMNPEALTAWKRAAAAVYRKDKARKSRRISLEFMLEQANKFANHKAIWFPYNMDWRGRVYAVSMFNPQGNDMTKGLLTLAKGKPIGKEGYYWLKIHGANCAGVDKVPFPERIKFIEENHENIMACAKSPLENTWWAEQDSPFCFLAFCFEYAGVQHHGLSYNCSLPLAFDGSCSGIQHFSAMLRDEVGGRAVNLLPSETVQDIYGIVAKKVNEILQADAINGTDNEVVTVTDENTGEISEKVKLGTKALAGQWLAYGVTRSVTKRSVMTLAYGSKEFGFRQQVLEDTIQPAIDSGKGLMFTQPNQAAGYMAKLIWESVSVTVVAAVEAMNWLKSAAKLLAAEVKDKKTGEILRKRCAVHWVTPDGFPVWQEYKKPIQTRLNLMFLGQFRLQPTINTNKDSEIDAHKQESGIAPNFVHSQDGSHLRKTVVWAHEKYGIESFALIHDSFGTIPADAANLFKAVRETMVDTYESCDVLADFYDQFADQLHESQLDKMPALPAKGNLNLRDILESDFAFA
Text: (§1) In vivo transcription assays of split RNAPs. N- and C-terminal halves of the RNAP were cloned into expression vectors, with the N-terminal RNAP under a constitutive promoter and the C-terminal RNAP under the arabinose-inducible promoter (Supplementary FIG. 1). S1030 cells (Carlson, et al., 2014) were transformed by electroporation with three plasmids: (i) an N-terminal RNAP expression plasmid, (ii) a C-terminal expression plasmid, and (iii) a reporter plasmid that encodes luciferase under control of the T7 promoter. The transformed cells were then plated onto agar plates (15 g/L in LB) with 50 μg/mL carbenicillin, 50 μg/mL spectinomycin, 33 μg/mL chloramphenicol, and 10 mM glucose. […] After growth with shaking at 37° C. for 2 h, 150 μL of each culture was transferred to a 96-well black wall, clear bottom plate (Costar), and luminescence and OD600 was measured on a Synergy H4 Hybrid Reader (BioTek). The data were analyzed by dividing the luminscence values by the background-corrected OD600 value, then subtracting out the background from the reporter vector alone. All values were then normalized to the wild-type split RNAP fused to ZA and ZB (data shown in FIG. 1d), which was assigned an arbitrary value of 100, allowing the values from each luminescence plot to be compared to one another. […]

C-ZB [3] = molecular target: T2, C-ZB (bacteriophage T7, UniProt P00573 180-883); assay: as above
T2 construct: also called C-terminal RNAP fused to ZB; ZB-fused C-terminal RNAP
T2 sequence (P00573 180-883, tags or fused parts left off): as the sequence (P00573 180-883 limits assumed) above
Text: as §1

C-ZB [4] = molecular target: T2, C-ZB; assay: cell-based or functional assay

Chain of SspB-C-term (bacteriophage T7) (P0AFZ3 6-116, tags or fused parts left off): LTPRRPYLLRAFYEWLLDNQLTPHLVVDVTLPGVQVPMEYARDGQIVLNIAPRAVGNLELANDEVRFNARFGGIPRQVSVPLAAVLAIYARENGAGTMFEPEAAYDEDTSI
Chain of FKBP-C-term (bacteriophage T7) (P62942 1-108, tags or fused parts left off): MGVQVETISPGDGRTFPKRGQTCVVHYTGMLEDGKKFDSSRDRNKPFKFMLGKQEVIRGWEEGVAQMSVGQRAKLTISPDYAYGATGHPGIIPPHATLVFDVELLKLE

Question: For N-term-iLID, which transcriptional output (luciferase reporter, E. coli), blue LED light against dark [1] is on record?
Answer: Its transcriptional output (luciferase reporter, E. coli), blue LED light against dark is 26 fold.

Question: With “N-term-FRB (from UniProt P42345 2021-2113)” as the molecule, how does the RNA synthesis in the in vivo luciferase transcription reporter assay (E. coli), with rapamycin [2] read?
Answer: Its RNA synthesis in the in vivo luciferase transcription reporter assay (E. coli), with rapamycin is 340 fold.

B1: N-term RNAP (WT) (enzyme)
chain: MNTINIAKNDFSDIELAAIPFNTLADHYGERLAREQLALEHESYEMGEARFRKMFERQLKAGEVADNAAAKPLITTLLPKMIARINDWFEEVKAKRGKRPTAFQFLQEIKPEAVAYITIKTTLACLTSADNTTVQAVASAIGRAIEDEARFGRIRDLEAKHFKKNVEEQLNKRVGHVYK
notes: N-terminal half of T7 RNAP split at position 179, without a fusion partner; expressed in E. coli; also called N-terminal split RNAP; N-terminal T7 RNAP
Question: What does the source list for B1?
Answer: binding result (C-term RNAP (WT)): binds; binding result (C-ZB [3]): binds

B2: N-ZA (other)
chain: MNTINIAKNDFSDIELAAIPFNTLADHYGERLAREQLALEHESYEMGEARFRKMFERQLKAGEVADNAAAKPLITTLLPKMIARINDWFEEVKAKRGKRPTAFQFLQEIKPEAVAYITIKTTLACLTSADNTTVQAVASAIGRAIEDEARFGRIRDLEAKHFKKNVEEQLNKRVGHVYKGGSGSGSSALKKELQANKKELAQLKWELQALKKELAQ
Question: With B2 as the molecule, how does the “transcription (luciferase reporter under the T7 promoter, E. coli)” value (C-ZB [4]) read?
Answer: The value was roughly 5 fold.
